Each block holds one molecule with its values, some of them ahead of it. * marks the point of attachment. Palmitoyl = CCCCCCCCCCCCCCCC(=O)*
Tests used:
rat thoracic aorta rings [1] = molecular target: T1, rat thoracic aorta rings (Rattus norvegicus, UniProt P49684); assay: Rat aortic ring contraction (agonist); details: mean ± SEM
T1 sequence (P49684 1-386): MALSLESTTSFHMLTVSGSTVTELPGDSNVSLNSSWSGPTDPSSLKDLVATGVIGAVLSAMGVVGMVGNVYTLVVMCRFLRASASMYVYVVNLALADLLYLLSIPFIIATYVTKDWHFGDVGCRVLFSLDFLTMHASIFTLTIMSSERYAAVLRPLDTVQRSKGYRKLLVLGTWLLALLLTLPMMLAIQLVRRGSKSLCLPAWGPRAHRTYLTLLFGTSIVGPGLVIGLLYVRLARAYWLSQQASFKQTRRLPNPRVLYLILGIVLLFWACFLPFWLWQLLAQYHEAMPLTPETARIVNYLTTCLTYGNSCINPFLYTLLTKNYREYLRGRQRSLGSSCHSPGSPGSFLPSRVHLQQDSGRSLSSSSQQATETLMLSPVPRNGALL
Description: (§1) Each replicate (n) was conducted on tissue obtained from at least three different animals. Data represent mean ± SEM.
(§2) Adult male Sprague-Dawley rats (Charles-River) weighing 250–300 g were housed in cages under controlled illumination (12:12 h light–dark cycle), humidity, and temperature (21–23 °C) and had free access to tap water and rat chow. All experimental procedures were performed in accordance with regulations and ethical guidelines from the Canadian Council for the Care of Laboratory Animals and received approvals of the institutional animal care and use committee of the Institut National de la Recherche Scientifique—Centre Armand-Frappier Santé Biotechnologie. As previously described ([17], [18]), the thoracic aorta was cleared of surrounding tissue and then excised from the aortic arch to the diaphragm. Conjunctive tissues were next removed from the thoracic aorta and the vessels were divided into five rings of 4 mm. The endothelium of each aortic ring was removed by gently rubbing the vessel intimal surface. Aortic rings were then placed in a 5 ml organ bath filled with oxygenated normal Krebs–Henseleit buffer. Eighty microliters of a 2.5 M potassium chloride solution (40 mM final concentration) was used to evaluate maximal contractile responses of each vessel. […] Cumulative concentration–response curves to synthetic peptides were obtained by increasing the concentration of each peptide in the remaining organ chambers (10^−11–10^−5 M).

rat thoracic aorta rings [2] = molecular target: T1, rat thoracic aorta rings; assay: Modulation of URP-mediated rat aortic ring contraction; details: URP alone, percentage of KCl (40 mM) contraction divided by tissue response to URP (10^−6 M), mean ± SEM, n = 22, read-out: URP-mediated contraction Emax, control (no pretreatment)
Description: as §1, §2

[3] = molecular target: T2, human urotensin II receptor, on HEK 293 cells stably expressing it (human) (UniProt Q9UKP6)
T2 sequence: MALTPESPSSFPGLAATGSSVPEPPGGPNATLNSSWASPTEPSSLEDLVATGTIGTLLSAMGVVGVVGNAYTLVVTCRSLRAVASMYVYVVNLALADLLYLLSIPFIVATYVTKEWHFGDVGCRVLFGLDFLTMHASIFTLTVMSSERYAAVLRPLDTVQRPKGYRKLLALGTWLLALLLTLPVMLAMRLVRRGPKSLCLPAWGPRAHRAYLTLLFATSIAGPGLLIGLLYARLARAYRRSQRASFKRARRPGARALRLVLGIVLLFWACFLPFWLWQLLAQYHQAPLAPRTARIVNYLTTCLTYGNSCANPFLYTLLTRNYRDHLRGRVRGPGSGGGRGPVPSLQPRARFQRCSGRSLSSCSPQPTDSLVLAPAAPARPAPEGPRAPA

[4] = molecular target: T3, human urotensin II receptor, on CHO-K1 cells stably expressing it (human) (UniProt Q9UKP6)
T3 sequence: T2 sequence

[5] = molecular target: T3, human urotensin II receptor, on CHO-K1 cells stably expressing it (human); remark: listed apart in the source
[6] = scale: % of the activation induced by hUII

contraction pEC50 (rat thoracic aorta rings [1]; n = 22 (hUII, URP), n = 5 (pepducins)): 8.10 ± 0.06 | Emax (rat thoracic aorta rings [1]; percentage of contraction induced by 40 mM KCl, n = 22): 108 ± 3% | Emax (rat thoracic aorta rings [2]): 105 ± 3%
Molecule: CC(C)[C@H](NC(=O)[C@@H]1CSSC[C@H](NC(=O)[C@H](C)N)C(=O)N[C@@H](Cc2ccccc2)C(=O)N[C@@H](Cc2c[nH]c3ccccc23)C(=O)N[C@@H](CCCCN)C(=O)N[C@@H](Cc2ccc(O)cc2)C(=O)N1)C(=O)O [URP, urotensin II-related peptide, reference compound]

G13 activation (BRET biosensor), HEK 293-hUT cells; pEC50 [3]: 6.51 -log EC50 | Gi activation (BRET biosensor), HEK 293-hUT cells; pEC50 [3]: 10.4 -log EC50 | Gq activation (BRET biosensor), HEK 293-hUT cells; pEC50 [3]: 8.34 -log EC50 | β-arrestin 1 conformational change (BRET biosensor), HEK 293-hUT cells; pEC50 [3]: 8.08 -log EC50 | β-arrestin 2 conformational change (BRET biosensor), HEK 293-hUT cells; pEC50 [3]: 7.74 -log EC50 | G12 activation (BRET biosensor), HEK 293-hUT cells; maximum efficacy at 10^-6 M [3, 6]: 5 | G13 activation (BRET biosensor), HEK 293-hUT cells; Emax [3, 6]: 185 | Gi activation (BRET biosensor), HEK 293-hUT cells; Emax [3, 6]: 97 | Gq activation (BRET biosensor), HEK 293-hUT cells; Emax [3, 6]: 29 | β-arrestin 1 conformational change (BRET biosensor), HEK 293-hUT cells; Emax [3, 6]: 18 | β-arrestin 2 conformational change (BRET biosensor), HEK 293-hUT cells; Emax [3, 6]: 19 | IP1 production (IP-One terbium immunoassay), CHO-hUT cells, 40 min; efficacy at 10^-5 M (% of the hUII maximum effect) [4]: 60 | IP1 production (IP-One terbium immunoassay), CHO-hUT cells, 40 min; pEC50 [4]: < 6 -log EC50 | ERK1/2 phosphorylation (western blot), CHO-hUT cells, 5 min; Emax (% of the hUII maximum effect) [5]: 56 | ERK1/2 phosphorylation (western blot), CHO-hUT cells, 5 min; pEC50 [5]: 6.7 -log EC50
B1: [Trp^1, Leu^2]hUT-Pep3 (peptide)
peptide: Palmitoyl-WLSQRASFKRARR-NH2
SMILES: CCCCCCCCCCCCCCCC(=O)N[C@@H](Cc1c[nH]c2ccccc12)C(=O)N[C@@H](CC(C)C)C(=O)N[C@@H](CO)C(=O)N[C@@H](CCC(N)=O)C(=O)N[C@@H](CCCNC(=N)N)C(=O)N[C@@H](C)C(=O)N[C@@H](CO)C(=O)N[C@@H](Cc1ccccc1)C(=O)N[C@@H](CCCCN)C(=O)N[C@@H](CCCNC(=N)N)C(=O)N[C@@H](C)C(=O)N[C@@H](CCCNC(=N)N)C(=O)N[C@@H](CCCNC(=N)N)C(N)=O

G13 activation (BRET biosensor), HEK 293-hUT cells; pEC50 [3]: 6.33 -log EC50 | Gi activation (BRET biosensor), HEK 293-hUT cells; pEC50 [3]: 10.1 -log EC50 | Gq activation (BRET biosensor), HEK 293-hUT cells; pEC50 [3]: 7.31 -log EC50 | G13 activation (BRET biosensor), HEK 293-hUT cells; Emax [3, 6]: 154 | Gi activation (BRET biosensor), HEK 293-hUT cells; Emax [3, 6]: 96 | Gq activation (BRET biosensor), HEK 293-hUT cells; Emax [3, 6]: 9 | β-arrestin 2 conformational change (BRET biosensor), HEK 293-hUT cells; maximum efficacy at 10^-6 M [3, 6]: 15 | IP1 production (IP-One terbium immunoassay), CHO-hUT cells, 40 min; efficacy at 10^-5 M (% of the hUII maximum effect) [4]: 35 | IP1 production (IP-One terbium immunoassay), CHO-hUT cells, 40 min; pEC50 [4]: < 6 -log EC50 | ERK1/2 phosphorylation (western blot), CHO-hUT cells, 5 min; Emax (% of the hUII maximum effect) [5]: 34 | ERK1/2 phosphorylation (western blot), CHO-hUT cells, 5 min; pEC50 [5]: 7.26 -log EC50
B2: hUT-Pep2 (peptide)
peptide: Palmitoyl-RPLDTVQRPKGY-NH2
SMILES: CCCCCCCCCCCCCCCC(=O)N[C@@H](CCCNC(=N)N)C(=O)N1CCC[C@H]1C(=O)N[C@@H](CC(C)C)C(=O)N[C@@H](CC(=O)O)C(=O)N[C@H](C(=O)N[C@H](C(=O)N[C@@H](CCC(N)=O)C(=O)N[C@@H](CCCNC(=N)N)C(=O)N1CCC[C@H]1C(=O)N[C@@H](CCCCN)C(=O)NCC(=O)N[C@@H](Cc1ccc(O)cc1)C(N)=O)C(C)C)[C@@H](C)O
